These results are taken from patent US20250084176A1 (F STAR BETA, published 2025).

Residue numbers refer to the chain shown, from its start.

Assay [1] deals with T1, human CD137, full length, on cells (human, UniProt Q07011 24-255).
T1 construct: also called DO11.10.hCD137; HEK.FRT.luc.hCD137
Kind of assay: flow cytometry on CD137low DO11.10 cells (ABC 14,208), anti-human IgG-PE detection, geometric mean PE. As to the method: A range of DO11.10 cells expressing different levels of CD137 were produced as described in Example 3.5. To determine the relative expression of CD137 in each cell line, the antibody binding capacity (ABC) was determined according to manufacturer's protocol (Quantum™ Simply Cellular® #816 Bangs Labs).
All antibodies tested were diluted in FACS buffer in 120 μl. DO11.10 cells were then centrifuged, supernatant removed and cells resuspended in 100 μl of each antibody dilution and incubated at 4° C. for 45 min. Cells were washed twice by centrifugation with 150 μl FACS buffer, resuspended in 100 μl containing goat anti-human IgG (γ-chain specific) F (ab′) 2 fragment-R-Phycoerythrin antibody (Sigma, P8047) diluted 1:1000 in FACS buffer and incubated at 4° C. for 45 min. The cells were washed once with 150 μl FACS buffer and then with 150 μl DPBS, resuspended in 150 μl DPBS containing DAPI (Biotium, 40043) at 1:10.000 and read on the BDCantoll or iQue (Intellicyt). Data was analysed using FlowJo v10 to determine the signal geometric mean for PE for live cells in each well.
(In general: Flow cytometry measures light scatter and fluorescence of single cells or particles in a stream.)

Assay [2] addresses T2, cCD137-mFc-Avi (cynomolgus; mouse, one biotin on the Avi sequence of each monomer (BirA); unbiotinylated in the SPR of Example 5.6).
T2 construct: also called cyno CD137-mFc-Avi; dimeric cynomolgus CD137; not shown: mouse IgG2a Fc domain (mIgG2a Fc)
T2 chain: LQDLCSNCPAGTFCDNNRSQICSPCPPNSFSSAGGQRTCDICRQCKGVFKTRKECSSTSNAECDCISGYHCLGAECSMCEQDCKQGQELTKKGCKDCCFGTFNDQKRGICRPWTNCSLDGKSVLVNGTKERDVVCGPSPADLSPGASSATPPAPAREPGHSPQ
Kind of assay: SPR (Biacore), mAb2 captured by anti-human Fab, antigen in solution, 1:1 Langmuir. Here is the method: (§1) An anti-human Fab capture antibody was immobilised on all four flow cells of a CM5 series S chip (GE Healthcare #BR-1005-30) to an average surface density of 6000 RU following the manufacturer's recommendations (GE Healthcare, human Fab capture Kit, #28958325). IEach mAb² was captured to approximately 150 RU by injecting a 3 μg/ml solution of mAb² diluted in HBS-EP+ buffer (GE Healthcare #BR1006-69) for 60 seconds at 30 μl/min. Then different concentrations of human, cyno or mouse CD137 antigen (unbiotinylated human, cyno or mouse CD137-mFc-Avi or human CD137-Avi-His) in HBS-EP+ buffer were flowed over the chip for 3 min at 60 μl/min and then allowed to dissociate for 10 minutes. After each antigen concentration the chip was regenerated by infecting 10 mM glycine pH 2.1 at a flow rate of 30 μl/min for 30 seconds. Buffer HBS-EP+ was injected before the highest concentration of antigen and after the lowest concentration of antigen for reference subtraction, and one of the concentrations at random was repeated twice. The binding kinetics were fit with a 1:1 Langmuir model to generate equilibrium binding constants (KD) for each sample. Data analysis was performed with BiaEvaluation software version 3.2.
A general note: SPR reads the build-up and loss of mass on a sensor chip optically.

Assay [3] addresses T3, hCD137-mFc-Avi (human; mouse, UniProt Q07011 24-186, one biotin on the Avi sequence of each monomer (BirA); unbiotinylated in the SPR of Example 5.6).
T3 construct: Made in-house in HEK293-6E; also called human CD137-mFc-Avi; dimeric human CD137; not shown: mouse IgG2a Fc domain (mIgG2a Fc)
Described as above. As to the method:
as §1

Assay [4] has as its target T1, human CD137, full length, on cells. Kind of assay: cell-based or functional assay.
The target in assay [5] is T4, hCD137-Avi-His (human, UniProt Q07011 24-186, single biotin on the Avi sequence (BirA); unbiotinylated in the SPR of Example 5.6).
T4 construct: also called human CD137-Avi-His; monomeric human CD137
Kind of assay: SPR (Biacore), mAb2 captured by anti-human Fab, antigen in solution, 1:1 Langmuir. Here is the method: as §1

For assay [6], the target named is T1, human CD137, full length, on cells. Kind of assay: cell-based or functional assay. The source holds these as a separate data set.
Assay [7] has as its target human CD40 (human, UniProt P25942 21-193). Kind of assay: SPR (Biacore T200), receptor amine-coupled to CM5 chip. As to the method:
(§2) The specificity of the anti-human CD137 Fcabs for human CD137 compared to other related TNFSFR family members was tested. 8 of the Fcabs were tested in mock mAb² (HeID1.3) format and measured by SPR in a Biacore T200 (GE Healthcare) by testing for binding to other human TNFRSF receptors: CD40, OX40 and GITR. Amine coupling (amine coupling kit, GE Healthcare, BR-1000-50) was used to coat human CD40, GITR and OX40 to approximately 1000 RU in Biacore CM5 chips (GE Healthcare, cat no 29149603). […] The chip was regenerated by injection of 10 mM glycine pH 2.5 for 12 s at 30 μl/min. Antibodies specific to the different TNFRSF members were used as positive controls to verify Biacore chip coating. Data was double reference subtracted and analysed using BIAevaluation 3.2 software.

Assay [8] concerns the target T5, human GITR (human, UniProt Q9Y5U5 26-161, limits assumed).
T5 sequence (looked up): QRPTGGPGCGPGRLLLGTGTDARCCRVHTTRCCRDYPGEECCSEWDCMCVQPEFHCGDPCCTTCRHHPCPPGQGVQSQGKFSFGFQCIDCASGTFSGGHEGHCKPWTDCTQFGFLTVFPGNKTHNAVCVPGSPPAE
Described as above. As to the method: as §2

Assay [9] concerns the target T6, human OX40 (human, UniProt P43489 29-216, limits assumed).
T6 sequence (looked up): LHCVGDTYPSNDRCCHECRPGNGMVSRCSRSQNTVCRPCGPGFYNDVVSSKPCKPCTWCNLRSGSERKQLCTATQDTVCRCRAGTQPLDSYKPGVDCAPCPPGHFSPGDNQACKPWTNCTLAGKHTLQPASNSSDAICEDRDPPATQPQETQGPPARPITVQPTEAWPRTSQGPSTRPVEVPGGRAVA
Described as above. As to the method: as §2

Assay [10] deals with T7, mouse CD137, full length, on cells (mouse, UniProt P20334 24-256). Kind of assay: cell-based or functional assay.
For assay [11], the target named is T7, mouse CD137, full length, on cells. Kind of assay: cell-based or functional assay. This is another data set of the same source.
Assay [12] addresses T3, hCD137-mFc-Avi. Kind of assay: SPR (Biacore T200), mAb2 captured by anti-human Fab, hCD137-mFc in solution, 1:1 Langmuir. As to the method: For the hCD137-mFc-Avi antigen the following method was used: an anti-human Fab molecule was immobilised on a CM5 chip to a surface density of between 9,000 and 11,000 response units (RU). The antibodies were diluted to 4 μg/ml in HBS-EP buffer and captured by the anti-Fab molecule with a flow rate of […].
For mCD137-mFc-Avi binding kinetic determination, a different approach was used. […] The analysis of the data was done using the Biacore T200 evaluation software. Curves were subtracted against a blank flow cell and fitted using a 1:1 Langmuir binding model with mass transfer, setting RI to zero as constant and Rₘₐₓ to local.

Assay [13] addresses T1, human CD137, full length, on cells. Kind of assay: cell-based or functional assay. This is another data set of the same source.

As usually defined, the Kd is the free concentration of one partner at which half of the binding sites on the other are occupied at equilibrium, for simple one-to-one binding. High values mean a looser complex, low ones a tighter complex. In general, koff refers to the rate constant with which the complex falls apart. Low values mean a long-lived complex, high ones a short-lived complex. One may read the kon as a measure of how fast the partners come together.

T1 sequence (Q07011 24-255): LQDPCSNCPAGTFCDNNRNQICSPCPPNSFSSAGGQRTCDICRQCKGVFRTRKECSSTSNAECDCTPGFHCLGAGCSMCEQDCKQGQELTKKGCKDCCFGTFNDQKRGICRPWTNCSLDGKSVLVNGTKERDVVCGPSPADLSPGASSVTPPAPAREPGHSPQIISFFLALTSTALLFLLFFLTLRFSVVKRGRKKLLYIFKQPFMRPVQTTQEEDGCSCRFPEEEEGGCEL
T7 sequence (P20334 24-256): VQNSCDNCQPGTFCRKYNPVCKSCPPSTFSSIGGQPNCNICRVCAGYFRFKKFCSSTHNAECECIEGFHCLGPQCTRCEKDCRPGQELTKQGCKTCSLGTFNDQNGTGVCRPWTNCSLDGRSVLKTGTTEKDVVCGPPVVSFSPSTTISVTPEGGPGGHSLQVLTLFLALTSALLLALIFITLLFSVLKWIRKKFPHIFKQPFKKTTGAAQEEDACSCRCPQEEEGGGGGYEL
T3 sequence (Q07011 24-186): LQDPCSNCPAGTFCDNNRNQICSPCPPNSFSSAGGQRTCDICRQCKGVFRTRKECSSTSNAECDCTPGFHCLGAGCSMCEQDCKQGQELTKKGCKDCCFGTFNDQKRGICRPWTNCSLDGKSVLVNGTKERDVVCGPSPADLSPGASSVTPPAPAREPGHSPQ
Chain of human CD40 (P25942 21-193 limits assumed): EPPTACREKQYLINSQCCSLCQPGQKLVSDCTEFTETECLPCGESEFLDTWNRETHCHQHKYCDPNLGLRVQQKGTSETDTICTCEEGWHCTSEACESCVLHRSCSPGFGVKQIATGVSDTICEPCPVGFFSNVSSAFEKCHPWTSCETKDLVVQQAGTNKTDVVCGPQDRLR
T4 sequence (Q07011 24-186): as the sequence (Q07011 24-186) above

B1: G1-AA/HelD1.3 (antibody, human IgG1, kappa, L234A L235A, V domains shown)
VH: QVQLQESGPGLVRPSQTLSLTCTVSGSTFSGYGVNWVRQPPGRGLEWIGMIWGDGNTDYNSALKSRVTMLVDTSKNQFSLRLSSVTAADTAVYYCARERDYRLDYWGQGSLVTVSS
VL: DIQMTQSPASLSASVGETVTITCRASGNIHNYLAWYQQKQGKSPQLLVYNAKTLADGVPSRFSGSGSGTQYSLKINSLQPEDFGSYYCQHFWSTPRTFGGGTKLEIKR
notes: Anti-hen egg lysozyme human IgG1 with the LALA mutation; also called G1-AA/HeID1.3; G1AA/HeID1.3 mAb (with LALA)
For the molecule B1, the binding result in [1] is recorded as “no binding”.

B2: FS22-053/HelD1.3 (bispecific antibody, human IgG1, kappa)
heavy: QVQLQESGPGLVRPSQTLSLTCTVSGSTFSGYGVNWVRQPPGRGLEWIGMIWGDGNTDYNSALKSRVTMLVDTSKNQFSLRLSSVTAADTAVYYCARERDYRLDYWGQGSLVTVSSASTKGPSVFPLAPSSKSTSGGTAALGCLVKDYFPEPVTVSWNSGALTSGVHTFPAVLQSSGLYSLSSVVTVPSSSLGTQTYICNVNHKPSNTKVDKKVEPKSCDKTHTCPPCPAPELLGGPSVFLFPPKPKDTLMISRTPEVTCVVVDVSHEDPEVKFNWYVDGVEVHNAKTKPREEQYNSTYRVVSVLTVLHQDWLNGKEYKCKVSNKALPAPIEKTISKAKGQPREPQVYTLPPSRDELNPPYLFSNQVSLTCLVKGFYPSDIAVEWESNGQPENNYKTTPPVLDSDGSFFLYSKLTVYYNRWQDGNVFSCSVMHEALHNHYTQKSLSLSPG
light: DIQMTQSPASLSASVGETVTITCRASGNIHNYLAWYQQKQGKSPQLLVYNAKTLADGVPSRFSGSGSGTQYSLKINSLQPEDFGSYYCQHFWSTPRTFGGGTKLEIKRTVAAPSVFIFPPSDEQLKSGTASVVCLLNNFYPREAKVQWKVDNALQSGNSQESVTEQDSKDSTYSLSSTLTLSKADYEKHKVYACEVTHQGLSSPVTKSFNRGEC
notes: Mock mAb^2, IgG1 without LALA; also called FS22-053/HeID1.3
In the case of B2, the Kd in assay [2] came to 34 nM; in assay [3], 38 nM. Also, the “NF-kB luciferase reporter (HEK.FRT.luc.hCD137), signal with against without Protein L” value in assay [4] is at least 10 fold.

B3: FS22-172/HelD1.3 (bispecific antibody, human IgG1, kappa)
heavy: QVQLQESGPGLVRPSQTLSLTCTVSGSTFSGYGVNWVRQPPGRGLEWIGMIWGDGNTDYNSALKSRVTMLVDTSKNQFSLRLSSVTAADTAVYYCARERDYRLDYWGQGSLVTVSSASTKGPSVFPLAPSSKSTSGGTAALGCLVKDYFPEPVTVSWNSGALTSGVHTFPAVLQSSGLYSLSSVVTVPSSSLGTQTYICNVNHKPSNTKVDKKVEPKSCDKTHTCPPCPAPELLGGPSVFLFPPKPKDTLMISRTPEVTCVVVDVSHEDPEVKFNWYVDGVEVHNAKTKPREEQYNSTYRVVSVLTVLHQDWLNGKEYKCKVSNKALPAPIEKTISKAKGQPREPQVYTLPPSRDELRKYYPPYNQVSLTCLVKGFYPSDIAVEWESNGQPENNYKTTPPVLDSDGSFFLYSKLTVGADRWLEGNVFSCSVMHEALHNHYTQKSLSLSPG
light: B2 light
notes: Mock mAb^2, IgG1 without LALA
For B3, the Kd turned out to be 203 nM in assay [2] and 52 nM in assay [3]. Also, the “NF-kB luciferase reporter (HEK.FRT.luc.hCD137), signal with against without Protein L” value in assay [4] was at least 10 fold.

B4: FS22-172-004/HelD1.3 (bispecific antibody, human IgG1, kappa)
heavy: B3 heavy with R358N, K359Y, Y360I
light: B2 light
notes: Mock mAb^2, IgG1 without LALA
Consider B4, for which the Kd came to 3.5 nM in assay [2] and 4.3 nM in assay [3]. The “Human monomeric CD137 KD fold difference relative to human dimeric KD” value in assay [5] was above 200 fold. In addition, the “NF-kB signalling, HEK.FRT.luc.hCD137, +XL (EC50 nM)” value in [6] was found to be 124 nM. Moreover, the binding result in assay [7], in [8] and in assay [9] was “no binding (tested: starting at 1 µM)” in each case.

B5: FS22-053-017/HelD1.3 (bispecific antibody, human IgG1, kappa)
heavy: B2 heavy with Y418H, N419W, Q422L, D423E
light: B2 light
notes: Mock mAb^2, IgG1 without LALA; also called FS22-053-17; FS22-053-017/HeID1.3
With B5, in [10], the “IL-2 release, mouse CD137 DO11.10 T cell activation assay, Protein L: +XL EC50” value turned out to be 16.7 nM and the “IL-2 release, mouse CD137 DO11.10 T cell activation assay, Protein L: +XL Emax” value worked out at 41000 pg/mL. In addition, the “IL-2 release, mouse CD137 DO11.10 T cell activation assay: EC50 against that of FS22-053-014” value in assay [11] is around 8 fold. In [12], this molecule came in with a Kd of 4.59 nM, a koff of 0.000406 s⁻¹ and a kon of 88500 M⁻¹ s⁻¹. Further, the “IL-2 release, human CD137 DO11.10 T cell activation assay, Protein L: +XL EC50” value in assay [13] is 0.82 nM.

B6: FS22-172-003/HelD1.3 (bispecific antibody, human IgG1, kappa)
heavy: B3 heavy with R358P, K359Y, Y360I, Y361I
light: B2 light
notes: Mock mAb^2, IgG1 without LALA
On to B6, for which the Kd in assay [2] worked out at 1.3 nM; in assay [3], 1.5 nM. For the same molecule, the “Human monomeric CD137 KD fold difference relative to human dimeric KD” value in assay [5] is above 200 fold. Moreover, the “NF-kB signalling, HEK.FRT.luc.hCD137, +XL (EC50 nM)” value in assay [6] turned out to be 32.6 nM. Besides, the binding result in assay [7], in assay [8] and in assay [9] was “no binding (tested: starting at 1 µM)” throughout.
